The values below are quoted from earlier work in PMC12524998.

In this data set the target is dysferlin (Homo sapiens) (UniProt O75923). Description: SPR.
Sequence of UniProt O75923 (O75923 whole entry): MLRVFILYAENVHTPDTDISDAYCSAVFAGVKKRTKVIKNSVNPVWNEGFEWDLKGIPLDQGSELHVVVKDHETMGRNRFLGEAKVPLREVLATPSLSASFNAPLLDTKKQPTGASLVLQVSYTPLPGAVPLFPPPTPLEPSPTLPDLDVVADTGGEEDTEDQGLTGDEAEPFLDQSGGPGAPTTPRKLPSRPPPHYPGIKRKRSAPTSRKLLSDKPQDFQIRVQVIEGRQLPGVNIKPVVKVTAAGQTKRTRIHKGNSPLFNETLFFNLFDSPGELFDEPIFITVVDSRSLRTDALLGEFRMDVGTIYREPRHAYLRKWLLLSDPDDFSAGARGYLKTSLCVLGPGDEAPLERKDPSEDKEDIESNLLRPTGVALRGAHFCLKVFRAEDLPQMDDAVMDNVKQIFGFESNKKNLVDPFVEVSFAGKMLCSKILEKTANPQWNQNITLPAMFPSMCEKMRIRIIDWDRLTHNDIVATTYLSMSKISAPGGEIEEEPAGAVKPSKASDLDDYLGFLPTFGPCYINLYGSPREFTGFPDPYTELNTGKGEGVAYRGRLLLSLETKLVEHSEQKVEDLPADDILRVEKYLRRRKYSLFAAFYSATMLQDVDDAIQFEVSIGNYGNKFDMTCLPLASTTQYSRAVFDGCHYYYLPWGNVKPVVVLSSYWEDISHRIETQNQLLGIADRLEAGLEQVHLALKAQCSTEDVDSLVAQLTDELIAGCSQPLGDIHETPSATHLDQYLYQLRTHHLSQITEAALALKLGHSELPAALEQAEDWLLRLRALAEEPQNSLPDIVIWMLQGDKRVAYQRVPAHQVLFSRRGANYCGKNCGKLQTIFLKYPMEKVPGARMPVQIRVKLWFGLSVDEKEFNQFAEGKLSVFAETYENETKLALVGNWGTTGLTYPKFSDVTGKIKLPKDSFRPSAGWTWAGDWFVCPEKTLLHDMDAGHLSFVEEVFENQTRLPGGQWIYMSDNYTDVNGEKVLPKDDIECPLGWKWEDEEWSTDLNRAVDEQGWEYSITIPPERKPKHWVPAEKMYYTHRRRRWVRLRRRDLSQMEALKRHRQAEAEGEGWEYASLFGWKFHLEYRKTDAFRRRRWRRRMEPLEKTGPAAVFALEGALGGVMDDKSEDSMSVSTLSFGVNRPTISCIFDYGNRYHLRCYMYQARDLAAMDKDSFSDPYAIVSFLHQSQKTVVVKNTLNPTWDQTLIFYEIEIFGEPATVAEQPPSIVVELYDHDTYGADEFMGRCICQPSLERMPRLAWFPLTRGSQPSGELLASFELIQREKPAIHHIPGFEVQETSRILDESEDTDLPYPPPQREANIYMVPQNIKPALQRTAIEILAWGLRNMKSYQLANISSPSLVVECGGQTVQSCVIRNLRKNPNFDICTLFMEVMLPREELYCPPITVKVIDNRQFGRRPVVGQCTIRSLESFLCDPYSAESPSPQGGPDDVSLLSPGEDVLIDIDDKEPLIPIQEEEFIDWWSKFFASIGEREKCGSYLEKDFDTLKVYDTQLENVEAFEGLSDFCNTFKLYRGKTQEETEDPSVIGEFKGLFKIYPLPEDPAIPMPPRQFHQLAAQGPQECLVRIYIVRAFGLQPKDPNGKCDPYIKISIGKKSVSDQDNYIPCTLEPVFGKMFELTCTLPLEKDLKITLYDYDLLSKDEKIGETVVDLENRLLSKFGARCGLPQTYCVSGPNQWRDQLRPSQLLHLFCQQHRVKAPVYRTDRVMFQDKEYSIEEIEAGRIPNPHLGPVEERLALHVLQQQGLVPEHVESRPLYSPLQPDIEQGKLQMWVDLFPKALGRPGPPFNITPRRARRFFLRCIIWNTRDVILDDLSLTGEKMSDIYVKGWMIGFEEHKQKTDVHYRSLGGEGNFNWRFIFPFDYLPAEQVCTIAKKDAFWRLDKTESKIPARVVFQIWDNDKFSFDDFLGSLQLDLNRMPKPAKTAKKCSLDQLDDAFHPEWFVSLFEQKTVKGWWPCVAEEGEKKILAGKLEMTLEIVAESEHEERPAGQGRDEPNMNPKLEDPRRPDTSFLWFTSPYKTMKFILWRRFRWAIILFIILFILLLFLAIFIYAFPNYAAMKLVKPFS

What is called Kd is the concentration at which binding is half-saturated. Turning to FKBP8 (from UniProt Q14318), the Kd was 0.024 µM.
